T1: Full-length human Flotillin 1 N-terminally tagged with GST (GST-HsFlotillin 1) (human, UniProt O75955 1-427)
T1 sequence: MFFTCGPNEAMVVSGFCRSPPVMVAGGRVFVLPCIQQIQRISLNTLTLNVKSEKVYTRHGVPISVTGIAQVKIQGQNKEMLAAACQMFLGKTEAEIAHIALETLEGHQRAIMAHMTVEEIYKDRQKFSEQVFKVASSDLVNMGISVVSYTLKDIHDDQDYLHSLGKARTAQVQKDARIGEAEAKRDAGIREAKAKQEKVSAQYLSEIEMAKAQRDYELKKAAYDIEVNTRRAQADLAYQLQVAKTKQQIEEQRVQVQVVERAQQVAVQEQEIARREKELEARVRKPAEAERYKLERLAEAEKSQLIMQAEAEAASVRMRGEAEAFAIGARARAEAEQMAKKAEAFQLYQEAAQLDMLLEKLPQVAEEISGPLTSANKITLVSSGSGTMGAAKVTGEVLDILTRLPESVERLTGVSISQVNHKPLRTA

B1: Full-length human Homer 1, N-terminally hexahistidine-tagged (His-HsHomer 1) (natural protein)
chain: MGEQPIFSTRAHVFQIDPNTKKNWVPTSKHAVTVSYFYDSTRNVYRIISLDGSKAIINSTITPNMTFTKTSQKFGQWADSRANTVYGLGFSSEHHLSKFAEKFQEFKEAARLAKEKSQEKMELTSTPSQESAGGDLQSPLTPESINGTDDERTPDVTQNSEPRAEPTQNALPFSHSSAISKHWEAELATLKGNNAKLTAALLESTANVKQWKQQLAAYQEEAERLHKRVTELECVSSQANAVHTHKTELNQTIQELEETLKLKEEEIERLKQEIDNARELQEQRDSLTQKLQEVEIRNKDLEGQLSDLEQRLEKSQNEQEAFRNNLKTLLEILDGKIFELTELRDNLAKLLECS

Tests used:
[1] = biological target: Full-length S. rosetta Flotillin 1 N-terminally tagged with GST (GST-SrFlotillin 1) (S. rosetta); experiment: […]
[2] = biological target: T1, Full-length human Flotillin 1 …; experiment: pull-down

Molecule | Kd [1] [nM] | Kd [2] [nM]
Full-length Salpingoeca rosetta Homer, N-terminally hexahistidine-tagged (His-SrHomer) (natural protein) | 960 | –
B1 | – | ~830
